Assay results reported in a protein production outcome set (Wang et al. 2014).

test: label from the status in PepcDB records

Q: Which protein production does the source give for “MDIPQAIKYYEQACDLDGDYGCFNAAYFYEYGIGTQKDITQAKTLAKQLREKINLSNINLDKKVSERIIGSVYSNKLEAYRDLSFRPHFIQGLSFYFYAPQSDERKLLSRIGFDSSHLARIAILWAREGDPEVAYQTAKLVSTLYFNNETKTIDIAEALKWLRISAEKGDADSQTLLGFLYEHAGLGLQPDGEKARKWYEMAAQQGNGEALYTLGRMYYSGVLVNVDYDKALYFFKKAYEKKLQEAADYLAQMYFNGQSVDVDCQQSWHYYDNSYIKKMTQRDYLDYCEKDRKRRNDFNQQLPELTLEKYAGLFGRIDNIPLCQIGFVVNTNKLIHVANLRVELILKNDAGVSDERMVAFPPLGLNTLGAEQGMGDSFKSMGYLLMKNGDLCDYHKLTFTVKSATATINGKKVDLLKTDNLHIIQNR” here?
A: failed

Q: With “MDIRRIVLYMALALIGLSLWNAWQIDYPAKQPVEEKTASQLTSDGHLLPQIIPSNAEQPVTLKAEEKASSGKQLIQVKTDVLDVDIDLKNGDIVKGLLLDYPLSVEDKNKPFPLLQNQASQRYVANSSLFVLDGQTPQSLDFDFTSEKEYYELKPDQNQLIVTLNGKSEDGLDVKKEFVFTKGSYLIEVNYKIANTGNSLWKGYFNTQLLRSSPKEDKSSIFHIGSYTGASFSNPGKNRYQKVSFSDMSKSNLDVDAKGGWIAMQQHYFLSAWVPNADSENKFYTLATDKDYTIGAVSQPITVKPKEDKIVGSKLYIGPEITSVLKGISPSLDLTVDYGILWFLSSLLFSLMKAIYTVVGNWGWSIVLVTVLIKLAFYRLSATSYKSMASMRKLQPKLQALRERYGDDKAKISQATMELYKQEKVNPLGGCLPILIQIPVFIALYWVLLESVELRQAPFIFWINDLASADPYHVLPLIMGATMLIQQKLNPAPADPMQAKVMMFLPILFTGLFWNFPSGLVLYWIVNNTLSILQQWYITRKYSDEKPAKKVVATAK” as the sequence, how does the protein production read?
A: failed

Q: With “MDISGHPKTRTRTIFDEVDEPVWFCCVLPIWVGEEMASGWGITGNKGRCYDFWMDFSECMSHCREPKDCTLLREDYLECLHHSKEFQRRNRIYKEEQRKLRAASRKGEEAGDGTHNHH” as the sequence, how does the protein production read?
A: failed

Q: Which protein production does the source give for “MDKAATPWLRYLEELRPHLQGRDHRGRKGSLRWLEALMAERGGRAGTVRNILYKDLGSPEEKERLYRILADLYREAGLKPPPPPAELFLKSARKVLGRDKRRIFRHFLRELEAGRRPQVVVVGGAATGKGVLLSALRQALAAFPGKTPFVLNLGGELAQALIPLAEELGVEAETLLSQLSPTQPYILQGALQQEFLAALAQALNRAGRPLLLRAEAQGTLEGLPLRGPDGGQRGLSAWLEPFLRSLEIPYLAALTEPPPTLPYQPLSPPSREEARRFVRERLPHLPPERLEALVNQAGRNFGELSRLVLLEAAKHDPETPLQDDPALRPLLEALAAFSPEADPAFPAALLERALNRPLERLSQAEKALLEWVGDGLVRPSLRSLLPQEAPRELHRLALEFFPRENLFRRLYHARKAGERRILLDLLTEDPARLALLPGLWQEARSWPKEDREALAAALVRYRAVLGQYAHPEVEEALALLAQAEDPRLRASARIKAAEAKADAGLYKEAEALLPPEEEFPLLDETARAEGLLVRAAVERWKGDYEKAARYAERAAELSVAPFLKDRVQLWRGLVAKDLGRYEEALTALAQVGHDPLLLGRARYQMGDLLMRLGSPEARARMEEGLKALEEAGAPQDEVARVRARYATLLRRLGLYPEAEAAIRRALEEALDPFTRARVESEAGILQAAQGRPLEALALLSRAEAYFRTTGERPKEARYRHLRTLFRLAAAYLLLETGTPYRPPLLGGLKAPEAERLLWDLLAKIPEEATDRYTALRLDAESLLALLLPPKEARERLRPFLGLANPYLRAQARLGYAEALLREGAYGEALAQTVALPPLLDPGLKAQAKATEVLALLALGEEEAAWQKLVEAKQSGLPEPFRLQLGRAVGRAHPGLAARLPPTPLAPPEALGLHLANPD” here?
A: failed

Q: Which protein production does the source give for “MDKFSDMTMFVSIVKHQGLAAAGRELGLSPATMTARLQALEERYRVKLLNRSTRHVSLTDAGELYYKASLEILDNVNETENLILNGVKEVKGALRVAAPKDIGKQYILPILSEFCEKYPDVVPYLYLNDDVSNIAESGIDIVVRYGELADSSLISRRLSSSHRVLCASPDYLAKYGTPLTPQDLINHHCLAMVRSHEELKTWHFQGSDKKNVITVLPKRFSDDGEVVRYWALEGAGIALKSILDVQDDINNRRLVTVLNGYMANFNTSTSVSSADLNVVYMSKKYQPKRIRLFLDFLLERFETMKNGGK” here?
A: not failed

Q: With “MDKKENTVVLFPQLSERYIDEGFLALKERKFEDALRCFEILRQYNAETEQTELASVICLLELKRMEEAKDKCEQLLKTGVVLFGDILETYVTILVQTNDYEGVIETVEKVLQTKDIMPDQKEKLAQLALFAEGMLNEGDASLVDSNFELDEFTNEIFGENFGQKLRAIQRLSLKDLDLALPVLKKFLIEEEQHPYLKTSILYKMIESQVEEEIEVEKFGNTIKVIPAFTGHNEEQSNNIIHKLSSRLEQNYPDIFEAMVTYWKELQISVFPFALLMDKEEIWSAVLERIGRKRFGLAIDEEELMAAYNIELEEFHIAYQWLLRVEREGYLPV” as the sequence, how does the protein production read?
A: failed

Q: With “MDKKKHSLKAPVMTHRAFLALAIPLIFSAMTTPLIGAVDTAIVGHLQDPALIGGVAVGALIFNTMYWLFGFLRVSTSGFSAQALGRKKEDDIMLAFVRPFLLAMFVGLSFILLQHPIKSASLLIISPPEHVGLFAEQYVAIRIWGAPFALISYVVIGWLMGIGRIRGAVTIQIGTNLLNVALDFLFVYWMQWGIGGVAAASLIAEVTGAVAGCLFVLRCYSFSVFSSLTQVLDKRPILHMLTVNRDLFIRTICLLTVLTTFTSIGARFGEVSLAANAILLQLHYLMAYMFDGVANAASIVVGRSVGARDRSLFERVVRLDIVWSSVICLWLVCTLGLMKEPIIALFTSIPAVQAETLQLFGWIMLFPIAGFWGLQLHGMFSGATVARPIRQSMIIAMLVFLISCWLFVPLWGNNGLWLSFIVFTIARSMTLHLSYPALQRLFHDKERSIGA” as the sequence, how does the protein production read?
A: failed

Q: For “MDKLKVAELFAGVGGFRLGLENTKEKIFDVTWANQWEPSKKIQHAFDCYNSRFITGEHVNKDIALISDEEIANTKADMVVGGFPCQDYSVARSLSGELGIQGKKGVLFWQIIRFIQNTYPKYLLLENVDRLLKSPSSQRGRDFGVMLSTLNELGYNVEWRVINAADYGNAQRRRRVFIFGYKQDLEHHHHHH”, which protein production is on record?
A: not failed

Q: For “MDKLKVAELFAGVGGFRLGLENTKEKIFDVTWANQWEPSKKIQHAFDCYNSRFITGEHVNKDIALISDEEIANTKADMVVGGFPCQDYSVARSLSGELGIQGKKGVLFWQIIRFIQNTYPKYLLLENVDRLLKSPSSQRGRDFGVMLSTLNELGYNVEWRVINAADYGNAQRRRRVFIFGYKQDLNYADLIDKYSLEDIVYNSGMFAKAFPIEKEPNKNRVNSSTITNDIVDISNNFSFQFYNSGIMKNGEILTIDTIPIFEKPTPLKEIVLKEVDDKYSLADEKIEKFKYLRGPKKIKRTSKDGHEYYFSEGGMSEFDSLDLPARTMLTSEASVNRSSHFLSIGGKFRTLTPIEAERLNGFPDNWTDTMPDRMRYFCMGNALVVPLVTRIGNQIEKIEKITNDDFSQLKLF”, which protein production is on record?
A: failed

Q: Which protein production does the source give for “MDKLRVPFHRPYVNLRRCSERLVMHIHILGICGTFMGSLAVLAKESGHRVTGSDANVYPPMSTQLQAQGIELTQGYDPAQLDPAPDLVVVGNALSRGNPAVEYVLNKGLPYVSGPQWLADHVLQDRWVLAVAGTHGKTTTSSMLAWVLEHAGMSPGFLIGGIPQNFAVSARLGDTPFFVVEADEYDSAFFDKRSKFVHYRPRTAILNNLEFDHADIFPDLPAIERQFHHLVRTIPSEGLVIHPTTEPALSRVIEMGCWTPVQTTGDGGQWQARLLSEDGSRFEVLFEGELQGAVEWDMTGQHNVANALATLAAARHVGVVPSLGVQALSAFKSVKRRMEKVAEVRGITIYDDFAHHPTAIATTLDGLRKKIGDAPIIAVIEPRSNSMKLGAHRDGLPESVSQADQVVWYAPPNLGWDLAATVAGGSVPSTVCDSLEAIIARVHSQVQPGTHIVIMSNGGFGGLHGKLAEALK” here?
A: failed

Q: Which protein production does the source give for “MDKNIFNILKKYFGYSSFRRGQENIIQSILDGNDTFAIMPTGGGKSICYQVPALYMKGLTIVITPLISLMKDQVDTLRENGVNASYINSTLSSKETNDILMSALSGHLKILYVAPERLEQDYFRNAIKDLTISMVAIDEAHCVSQWGHDFRVSYKRIVPFINIFDKRPIVAAFTATATDEVKKDIINLLELKEPNCFITGFDRDNLFFSIVKNENKFDFITKYLSKHKELSGIIYAATRKEVDSLHQKLISQGYSVGKYHAGMGDKERSESQDLFLYDETKLMIATNAFGMGIDKSNVRFVIHYNMPKNLESYYQEAGRAGRDGEKSECIILFSGQDIQIQKFLIKQSIPSFDRQRIELKKLNDMINYCMTTSCLRKYILNYFGENYEVENCDNCINCTGNVEIVDITLEAQKIISCIYRMGQNFGVTMIAEVLKGSKNSKVLRFNFDKLSTYGIMKDCTLKQITNLINTLIADGYLYLSDSEYATVKMSQKSIEVLKGYKKVVQKIHIVEELSLSTDNTLFEILKALRLEIARRENVPPYIIFSDSVLSEMCKYYPKDKNSMLQIKGVGEIKYNKYGEIFEEKIREYIKETNLTPEDNNKGTLKVPELLSKKIPTHIETFNLYKKGITIADMAKIRNLSIPTIQEHILKCANEGLNVNLDAYIPAEYKDLIYEKIRILGTSKLRPIKDALPDDVDYMAIKAAICKYTSKNKAI” here?
A: failed

Q: With “MDKNIWTSRRRRGRSHHRSPALRQCDSSERYTSGASQSSQDSGHHDVECPSTSSSKAGESSVPDLPGFYFDPEKNRYFRLLPGHNNCNPLTKEGIQLKEMESRRLQLLQQEDKQKKKIARVGFNASSILRKNQLGFLNFSSYCRLSHELRVACMERKKVEIQSSDPSALASDRFNFILADTTSDRLFTVNDVKIGGSKYGIISLQGLKAPTFEVHMHENLYFTNRKVNSVCWASLNHLDSHILLCLMGLAETPGCATLLPASLFVSSHQGTDQPGMLCSFRIPGAWSCAWSLNVQANNCFSTGLSRRVLLTNVVTGHRQSYWTNSDVLAQQFAVKTPLLFNGCRSGEIFAIDLRSPSQAKGWKATQIFHDSAVTSVQVFKEEQYLMASDMAGKIKLWDLRATKCVRQYEGHVNEYAYLPLHMHEEEGILVAVGQDCYTRIWSLHDARLLRTIPSPCPTSKANIPSVAFSPRLGGPRGAPGLLMAVQQDLYCFPYSSSCPDGLKEGRWEPSSVSKEDIL” as the sequence, how does the protein production read?
A: failed

Q: For “MDKQTSPQEEIPELAVAVPQDAAALARALDLEAQTVSTWLTQGLGIVARVGSQIVGLAHLVDDGGHADVTDLALTTPDDADVVAALIGGAEQIATELESRVLVVSGLKASPGPAYHYNSGWVRVLPTRVVVPTAEAMHAFGAALAAQLRAGDIVLASGDLGAGKTTLAQGIGRGLGVDGPVISPTFVLARRHVGSEGRPGLVHVDAYRLGSAAELIDLDLDETMDQAVTLIEWGAGIAEDLGGSHLDVDIRRSGDPADETRVVYLEGFGPRWQDVDLSLLSELPLDTISPDQTGDNN”, which protein production is on record?
A: failed

Q: Which protein production does the source give for “MDLALAPETLARWQFGITTVYHFLFVPLTISLAALTAGLQTAWVRTEKEKYLRATKFWGKLFLINIAMGVVTGIVQEFQFGMNWSDYSRFVGDVFGAPLAFEALIAFFFESTFIGLWIFGWDKLPKKIHLACIWMVSIGTLLSAYFILAANSWMQHPVGYRINEEKGRAELTDFWQVLTQNTTLNQVFHSFSAAFLTGGAFMVGIAAFHLMRKKHIPVMRTSLRLGLVTLAVGGLLTAVSGDTLGKVMYEQQPMKMAAAEALWDGEKPAPFSVFAYGDVDKGHNKVALEVPGLLSFLAHSDFESYVPGINDTNKALQEQFGPGDYKPIVPVAYWGFRWMIGFGMASFSLGLLGLWLTRKRFLLPPALRTGEDEVPHLVLLKKPLGARLTRMYWLLALWTMAFPLIANSWGWIFTEMGRQPWVVYGVMQTRDAVSPGVSTAEVIISMSVFTLLYAVLAVIEVKLLAKYVKAGPPELTEADLNPPTKIGGDLRDADKPMAFSY” here?
A: failed
